Data as given in the supplement of paper PMC12764529.
± gives the half width of the 95% confidence interval.

experiment: folding stability dG unfold (combined trypsin and chymotrypsin); higher = more stable
How it was run: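 Designed mini-proteins (under 80 residues, no cysteine) in a PA-tagged cDNA display construct were digested with trypsin and chymotrypsin. Each protease was used at 11 concentrations (threefold dilutions) plus a no-protease condition, followed by sequencing. K50 was inferred by Bayesian fitting of sequencing counts, and unfolding free energy was derived against a sequence-predicted unfolded-state K50 and a shared folded-state K50, per protease or combined. Only designs with AlphaFold2 dimer inter-PAE above 15 were kept.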

Compared with “SAGGSRRLEFMFYNPEAGFLIKIEVTYDPDDPGYYKIRVEVYPPDGEPIFPVEIYVPPGDDIKIKFPSAGGS [r16_654_TrROS]”, “SAGGSAMTPVTIELPFEVEADDPEEAIKKAKELAEKLGLKPVEIKEIEVEPGNPKKVTVLMKATILSAGGSA [r15_183_JUSTAS]” is lower in “folding stability dG unfold” value: 4.31 ± 0.29 kcal/mol for the first, 1.6 ± 0.071 kcal/mol for the second.

Compared with “SAMNTRTVTLTIERPPGSPETLEAVRARLAALGFTVTSESEEVLPDESLTRVTLTVEDPGVPETLLALLSAG [r14_956_JUSTAS]”, “SAGGSAGGSADEEKLKELAEKLREAGYEVEVERYPDKVVIRVRNKKTGKTLELVFDSVEEALSAGGSAGGSA [r18_278_TrROS_Hall]” is higher in “folding stability dG unfold” value: 1.91 ± 0.06 kcal/mol for the first, 3.92 ± 0.15 kcal/mol for the second.

Compared with “SAGGKKKPPKVKIVSIEVEVFKNENGEKFVKVKIKFEKTNKIITITVPPGMTLEELAKKLNIEIEKESAGGS [r16_676_TrROS_Hall]”, “SAGGSAGGKIEIVFETPSGDIVPITYDPKTKKVDVTVRNKDGKPSEELKEKAIELAKKLIEELESAGGSAGG [r6_224_TrMRF]” is lower in “folding stability dG unfold” value: 2.72 ± 0.088 kcal/mol for the first, 0.519 ± 0.26 kcal/mol for the second.

Compared with “SAGGVVTVTVDPNSDKVTAYTTRTVTVYFNELGIWKEEEVTDVVTMSQEELEKLKEESGLPMVIVGASAGGS [r8_337_JUSTAS]”, “SAGGNPASATVTINEDILVNGSPEEARALVEARAKAEGITITDVTITPVPGDPSVYRVSATFSKTLASAGGS [r8_479_JUSTAS]” is higher in “folding stability dG unfold” value: 0.238 ± 0.094 kcal/mol for the first, 1.87 ± 0.15 kcal/mol for the second.

Going from “SAGMVRIELRPRPDGRPIALIDVGAPGGPPRRFEIEVDETETLDDIAERLRAEGFDLPEGIDLEELAGSAGG [r19_263_TrMRF]” to “SAGELEVTVTVRTETRTETREEEERRRREAAPPVRLRVFFPDTGLAVELEFDANGNIVSVKVTELPEDLSAG [r5_342_TrROS_Hall]”, the “folding stability dG unfold” value rises from 1.91 ± 0.044 kcal/mol to 2.39 ± 0.1 kcal/mol.

Going from “SAGGSAGGKKKTIVIKADSLEELKAALEALPEKVEVRLPNGETITLEVDGKKVEIKVISPEELKSAGGSAGG [r6_641_TrROS_Hall]” to “SAGGSAGGPLVFEADATGTAPDDKELVIERVLVVVDPVRGEAHLYARIPGTGEWRYLGTFDLKDSAGGSAGG [r6_329_TrMRF]”, the “folding stability dG unfold” value rises from 0.753 ± 0.14 kcal/mol to 3.21 ± 0.082 kcal/mol.

First: SAGGSAGVKSSSPNGLTLEFPFESEEEVEEAVKEIKKAFPENYEVKIEIEKSEKILKVKIIVKKKDSAGGSA [r15_80_TrMRF]
Second: SAGGIDLDNMSPEEAKERARDTVREFRELFPPEKKYKFKIKVTIDYRDPGNGRQRTVTVEAPIEFTPDSAGG [r13_385_TrROS]
The “folding stability dG unfold” value of the first is higher: 1.9 ± 0.091 kcal/mol for the first, 0.753 ± 0.24 kcal/mol for the second.

“SAGGMTITFPEGITITFSPDNTATVTINFPGNPLTLTLNATTLEEVIETAKKAAEEFRKPPPKLVLKVSAGG [r13_896_JUSTAS]” and “SAGGSAGGRIMIPVKNIKGQPAEEAKQWLKAILRELFPPGMKIDIDVQPDKDGEYWVTIDIKPPSAGGSAGG [r6_964_TrROS]” are within error of each other in “folding stability dG unfold” value: 1.6 ± 0.096 kcal/mol for the first, 2 ± 0.44 kcal/mol for the second.

Compared with “SKKKVKTETVTLKIVNEKTGEEVELTLEFYEDGTVVKVTFPDGTTKEIKVGKTLEELLSLPPNAKIELIPSA [r9_781_TrROS_Hall]”, “SAGGSKKTYIVDSPEEIAKLIESIPEEEYVFAIKGRPDGKPVVEIYSKENIEEAIKENPEIIIPVGSAGGSA [r2_351_TrMRF]” is lower in “folding stability dG unfold” value: 1.56 ± 0.11 kcal/mol for the first, 0.479 ± 0.11 kcal/mol for the second.

Going from “SAGGSAGGMSIKVEVPGPYTVKIYRPDGKPIGEIEGEPGSVIEIDLNVPPGEAKNLIIEVYPTDSAGGSAGG [r6_471_TrMRF]” to “SALEANIKKAEELAKPEEKVPEFPVKVGDLYIKSVRFFPSTKKVVLFLPNGEKIEADPNVTLEEILKAISAG [r14_59_TrMRF]”, the “folding stability dG unfold” value falls from 2.2 ± 0.24 kcal/mol to 0.51 ± 0.15 kcal/mol.

“SAGKEVEIKIEIVIKMTPEELKKLAEELAKKLKEAGFEVEVTVEEKEVNGELYAVITVTVRLPPGAKPPSAG [r5_217_TrROS_Hall]” and “SAGGSMMKVTIVDKDGKERVFTFPKDMTEEEVLERIKKELEAEGVEVEEVEVERREDGSLVIRVKKSAGGSA [r2_148_TrROS_Hall]” are within error of each other in “folding stability dG unfold” value: 3.67 ± 0.42 kcal/mol for the first, 3.93 ± 0.14 kcal/mol for the second.

Going from “SAGAKIVSVEKVNGEKKITIKVKKEGDEIVIVFPKKNAKIEKKKNGTIEITIKEGETVIIVLKVKKKKSAGG [r19_227_TrROS_Hall]” to “SAGGSAGGSAGTIPLDNIKEVELEYDPNSGYYEHRIEFPNGRRLVIRFPPSDNVEIQWLDSAGGSAGGSAGG [r17_182_TrROS]”, the “folding stability dG unfold” value falls from 2.99 ± 0.22 kcal/mol to 1.31 ± 0.092 kcal/mol.

Compared with “SDDPKDKKKPKPEITMVPIVFKIPPGDELKIEEDPNGMIEVRVPNGHWIRVWILVNPDGNILNVMIEPWPSA [r9_1195_TrROS]”, “SARRDGSKVFLELERVVPLDVPLETVLEEVRRLFPEDAEIRLEAVPRRDLLDGVPREYRVVRVIVVRDDSAG [r14_633_TrMRF]” is lower in “folding stability dG unfold” value: 2.82 ± 0.23 kcal/mol for the first, 1.79 ± 0.15 kcal/mol for the second.

“SAMTKLVEFDSEEEYEAAVKAAAAAGESVLARLKDPSGTYTVVEVEVDPETGTVTVKKTEKVPVDGSLGSAG [r14_455_JUSTAS]” and “SAGKKYIVVVNVDFGSPEKKESAPIVLELDEDEEVSEALAKIPGLEDVKVEVYVIEAEENPELAENPGSAGG [r19_339_TrMRF]” are within error of each other in “folding stability dG unfold” value: 1.14 ± 0.042 kcal/mol for the first, 0.994 ± 0.2 kcal/mol for the second.

Compared with “SAGKFKIVKVEIKDGKITITVKNEKTGELVKKEITFDKKTKKLKIKLYNKNGKLIKEETKTLSLEELKKSAG [r5_308_TrROS_Hall]”, “SAGIEIRIEAYMPWEEARDQVKEIARWLMSMFPGFKVDIDVDHEPVPNNMWVATVTIKIEPLPPGQPIFSAG [r5_936_TrROS]” is higher in “folding stability dG unfold” value: 2.49 ± 0.096 kcal/mol for the first, 4.56 ± 0.12 kcal/mol for the second.

Compared with “SAGGSAGGSAGKAVFIRELENGAIVLAVPFPDSVRLRVFPLTPGGEVESVEEFTLAPEELSAGGSAGGSAGG [r11_88_TrMRF]”, “SAGGSAGGSAGKVEITVEKNPETGLYTVRIKTEDGKEIEITVPKNMTLEELKKLAEELLKSAGGSAGGSAGG [r17_161_TrROS_Hall]” is higher in “folding stability dG unfold” value: 0.591 ± 0.08 kcal/mol for the first, 4.42 ± 0.1 kcal/mol for the second.
